The text below walks through data of publication PMC4361775.

Usually stoichiometry N stands for a count of units in the complex or per binding partner. By Kd is commonly meant the free concentration of one partner at which half of the binding sites on the other are occupied at equilibrium, for simple one-to-one binding.

Assay [1] addresses type II human collagen (human). As to the kind of experiment: SPR. (Surface plasmon resonance follows binding to a sensor surface in real time, without labels.)
The target in assay [2] is coch_vWFA2_F527C protein, monomeric form (recombinant vWFA2 domain of human cochlin carrying the p.F527C mutation) (human). As to the kind of experiment: non-reducing SDS-PAGE.
The target of assay [3] is type II collagen (UniProt P02458). As to the kind of experiment: SPR. The settings on record: cited from earlier work.
Sequence of type II collagen (P02458 182-1241): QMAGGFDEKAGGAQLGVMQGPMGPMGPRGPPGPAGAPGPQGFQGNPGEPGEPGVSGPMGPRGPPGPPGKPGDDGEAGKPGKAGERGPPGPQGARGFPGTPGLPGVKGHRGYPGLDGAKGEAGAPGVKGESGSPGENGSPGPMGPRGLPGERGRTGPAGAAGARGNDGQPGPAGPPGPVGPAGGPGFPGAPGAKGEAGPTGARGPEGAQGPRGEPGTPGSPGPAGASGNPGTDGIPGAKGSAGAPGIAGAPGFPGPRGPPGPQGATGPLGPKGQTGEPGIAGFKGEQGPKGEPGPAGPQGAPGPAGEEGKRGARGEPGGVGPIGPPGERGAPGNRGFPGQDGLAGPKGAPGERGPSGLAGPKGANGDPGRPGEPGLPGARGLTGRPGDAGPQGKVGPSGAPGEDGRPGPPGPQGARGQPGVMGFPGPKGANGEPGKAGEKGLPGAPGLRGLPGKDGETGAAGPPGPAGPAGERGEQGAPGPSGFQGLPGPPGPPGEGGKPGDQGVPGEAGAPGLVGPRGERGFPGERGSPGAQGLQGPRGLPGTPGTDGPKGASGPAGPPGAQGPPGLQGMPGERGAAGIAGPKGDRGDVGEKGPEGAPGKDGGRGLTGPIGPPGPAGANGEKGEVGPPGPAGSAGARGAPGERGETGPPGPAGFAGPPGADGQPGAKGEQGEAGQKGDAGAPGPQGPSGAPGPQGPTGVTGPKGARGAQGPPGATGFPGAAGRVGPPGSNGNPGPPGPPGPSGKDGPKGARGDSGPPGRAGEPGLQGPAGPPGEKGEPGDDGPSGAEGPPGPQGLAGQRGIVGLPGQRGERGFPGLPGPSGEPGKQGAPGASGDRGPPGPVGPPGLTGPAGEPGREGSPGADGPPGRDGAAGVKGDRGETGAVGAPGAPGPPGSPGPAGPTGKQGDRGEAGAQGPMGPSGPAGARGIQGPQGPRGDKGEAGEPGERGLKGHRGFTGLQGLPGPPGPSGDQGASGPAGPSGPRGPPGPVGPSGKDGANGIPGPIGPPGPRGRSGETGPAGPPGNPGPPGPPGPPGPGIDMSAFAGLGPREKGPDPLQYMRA

In turn, “coch_vWFA2_F527C protein, dimeric form (covalent disulfide-bonded dimer) (domain or fragment)” registered a Kd of the higher-affinity species (heterogeneous analyte, two species 1:1) in assay [1] of 950 nM. Turning to “coch_vWFA2_F527C protein, monomeric form (recombinant vWFA2 domain of human cochlin carrying the p.F527C mutation) (domain or fragment)”, in assay [2], the stoichiometry N is 2.

On to cochlin vWFA2 (from UniProt O43405), for which the Kd in assay [3] is 94.5 nM.
